Reference: the supplement of paper PMC9170038

System: MS2 coat protein
Assay: apparent KD of MS2 coat protein; designed switch direction (-1 OFF switch, 1 ON switch): 1; higher = weaker reporter binding
How it was run: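 An oligonucleotide input, 200 uM small-molecule ligand, or no input was present during titration of SNAP-549-labelled MS2 coat protein, which was doubled from 0.7 or 1.5 nM to 3 µM. Designed RNA switches had been transcribed on Illumina chips by stalled E. coli RNA polymerase. Apparent KD per design is the median over clusters of curves fitted to normalised cluster fluorescence.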

[1] = input ligand: microRNA oligo, concentration not stated
[2] = Eterna round: R95, input ligand: microRNA oligo, concentration not stated

Sequence | apparent KD of MS2 coat protein [1] [nM] | apparent KD of MS2 coat protein (input ligand: FMN 200 uM) [nM] | apparent KD of MS2 coat protein (input ligand: none) [nM] | apparent KD of MS2 coat protein [2] [nM] | apparent KD of MS2 coat protein (Eterna round: R95, input ligand: FMN 200 uM) [nM] | apparent KD of MS2 coat protein (Eterna round: R95, input ligand: none) [nM]
GAGUGGUAAAGAGGAUAUGCAUUGUUAUUCACUGCAGAAGGUUUUAACAUGAGGAUCACCCAUGUAGGACUAUUCCUGUGUUUC [Parity 64 - Jieux - Same State NG 1] (Eterna round: R96, puzzle: Same State NG 1) | 10.3 | – | – | – | – | –
GAGUGGUAGAGAGGAUAUGCAUUGUUAUUCACUGUAGAAGGUUUUAACAUGAGGAUCACCCAUGUAGGACUAUUCCUGUGUUUU [Parity 62 - Jieux - Same State NG 1] (Eterna round: R96, puzzle: Same State NG 1) | 13.3 | 16.3 | 18.4 | – | – | –
GAGUGGUAGGGAGGAUAUGCAUUGUUAUUAAAUGCAGAAGGUUUUAACAUGAGGAUCACCCAUGUAGGACUAUUCCUGUGUUUC [Parity 67 - Jieux - Same State NG 1] (Eterna round: R96, puzzle: Same State NG 1) | 12.7 | 12.4 | 16.9 | – | – | –
GAGUGGUUGGGAGGAUAUGCAUUGUUAUUAAAUGCAGAAGGUUUUAACAUGAGGAUCACCCAUGUAGGACUAUUCCUGUGUAUC [Parity 69 - Jieux - Same State NG 1] (Eterna round: R96, puzzle: Same State NG 1) | 12.1 | 13 | 15.8 | – | – | –
GAUCGUUUGAUAGGAUAUCGCUAUACAUGAGGAUCACCCAUGUUUACCACGCUGGUUUUUCAUACCGAGAAGGAUUCUGAUGAU [salish99_SSNG02_r04_009] (Eterna round: R96, puzzle: Same State NG 2) | 24.9 | 29.9 | 36.9 | – | – | –
GAUUAACAUGAGGAUCACCCAUGUCGUUUAAUGGGAGGAUAUACGUGGACCGUAGUCCGCGUAGAAGGCCUAAUUG [JL-ss1-3.22 janelle mod] (Eterna round: R96, puzzle: Same State 1) | 48.3 | 31.5 | 77.4 | – | – | –
GAUUAACAUGAGGAUCACCCAUGUCGUUUAAUGGGAGGAUAUACGUGGACCGUAGUCCGCGUAGAAGGCCUAAUUG [JL-ss1-3.22 janelle mod] (puzzle: Same State 1) | – | – | – | 76.1 | – | –
GAUUCACAUGAGGAUCACCCAUGUCGUUUUAUGGGAGGAUAUACGUGGACCGUAGUCCGCGUAGAAGGCCUAAUUG [JL-ss1-3.24 janelle mod] (puzzle: Same State 1) | – | – | – | 92.1 | – | –
GCAAUAAGGUGAGGAUAUGCAGAGGAUCACCCUGUAGAAGGCAUCAGGUGAGGAUAUGCAGAGGAUCACCCUGUAGAAGGCAUC [pwkr ssNG DX.15] (Eterna round: R96, puzzle: Same State NG 1) | 123 | 100 | 175 | – | – | –
GCACAUGAGGAUCACCCAUGUGCGCUUGGUUGUCCAAGCGCACAGGAUAUACCUCCCAAUGGGAGGUAGAAGGGUGAAAAGAAA [Orraveceat] (Eterna round: R96, puzzle: Same State NG 3) | 10.9 | 12.4 | 16 | – | – | –
GCACCUCGAUGAGGAUAUACAAGCGGAGAUUACAUGAGGAUCACCCAUGUGUGUCGCUUUCGAUGGUAGAAGGCAUACGAGGCA [Eternabot solution 14] (Eterna round: R96, puzzle: Same State NG 2) | 52.5 | 16.6 | 59.2 | – | – | –
GCAGGACGGUAAAACAUCUCACAUGAGGAUCACCCAUGUCGUGAGGAUAUGGAUCCUAAUUGGAUCCAGAAGGCACGGUCCUGC [Fiskers NG3ss - 29] (Eterna round: R96, puzzle: Same State NG 3) | 14 | 18.4 | 13.6 | – | – | –
GCCAACUAAUGAGGAUAUGGCACCUUAUUGGUGCCAGAAGGCAUGUCAAUUGACAUGAGGAUCACCCAUGUAUUAUAGUUGGCA [Fiskers NG1ss - 33] (Eterna round: R96, puzzle: Same State NG 1) | 178 | 90.4 | 405 | – | – | –
GCCACACAUGAGGAUCACCCAUGUAAUUACAUGGGAGGAUAUCAGUGCUCGAAAGAGCACUGAGAAGGCCCGUGGC [SS1 - Omei A v4] (puzzle: Same State 1) | – | – | – | 40.1 | 120 | 309
GCCAGUGCGAAACUCACAUGAGGAUCACCCAUGUGCGUUGAGUAGGAUAUCCGGCUACUCGAGGCGGAGAAGGACUGGGUACUG [Eternabot solution 14] (Eterna round: R96, puzzle: Same State NG 3) | 12.3 | 17.4 | 17.3 | – | – | –
GCCAUCCAAUGAGGAUAUGGCACCGUUUCGGUGCCAGAAGGCAUGUCAAUUGACAUGAGGAUCACCCAUGUAUUAUGGAUGGCA [JL Fiskers NG1ss - 33 mod 2] (Eterna round: R96, puzzle: Same State NG 1) | 739 | 101 | 1390 | – | – | –
GCCAUCGAGUGAGGAUAUGGCACCGAAACGGUGCCAGAAGGCAUGUCAAAAGACAUGAGGAUCACCCAUGUAUUAUCGAUGGCA [Mat - Same State NG 1 - JL mod - D88] (Eterna round: R96, puzzle: Same State NG 1) | 208 | 28.5 | 237 | – | – | –
GCCGCGUUUCACGCCUACAUGAGGAUCACCCAUGUAUGUAGGCAGGAUAUCGUUUGCUUUGCAAACGAGAAGGGCUGUAGUGGC [salish99_SSNG3_R04_007] (Eterna round: R96, puzzle: Same State NG 3) | 92.3 | 41.7 | 116 | – | – | –
GCCGCGUUUCGCGCCUACAUGAGGAUCACCCAUGUUUGUAGGCAGGAUAUCGUCCGCUUUGCGGGCGAGAAGGGCUGUUGUGGC [salish99_SSNG3_R04_021] (Eterna round: R96, puzzle: Same State NG 3) | 43.5 | 47 | 54.8 | – | – | –
GCCGCGUUUCGCGCCUACAUGAGGAUCACCCAUGUUUGUAGGCAGGAUAUCGUUUGCUUUGCAACCGAGAAGGGCUGUUGUGGC [salish99_SSNG3_R04_013] (Eterna round: R96, puzzle: Same State NG 3) | 38.4 | 51.6 | 55.5 | – | – | –
GCCGCGUUUCGCGCCUACAUGAGGAUCACCCAUGUUUGUAGGCAGGAUAUCGUUUGCUUUGCAAUCGAGAAGGGCUGUUGUGGC [salish99_SSNG3_R04_014] (Eterna round: R96, puzzle: Same State NG 3) | 44.6 | 33 | 56.6 | – | – | –
GCCGCGUUUCGCGCCUACAUGAGGAUCACCCAUGUUUGUAGGCAGGAUAUCGUUUGCUUUGCAGGCGAGAAGGGCUGUUGUGGC [salish99_SSNG3_R04_016] (Eterna round: R96, puzzle: Same State NG 3) | 39.1 | 43 | 46.5 | – | – | –
GCCGGCUGGUGAGGAUAUGGCACCUUAUUGGUGCCAGAAGGCAUGUCAAUUGACAUGAGGAUCACCCAUGUAUUAUAGUUGGCG [salish99_SSNG1_r04_605] (Eterna round: R96, puzzle: Same State NG 1) | 69.3 | 414 | 56.1 | – | – | –
GCGAAAUGAUGAAACAUGAGGAUCACCCAUGUAACGAGAGAUGAGGAUAUCGGAAAGGGAGGAGACGAGAAGGCAUGGUCACGC [AK SSNG3-V2-25.1] (Eterna round: R96, puzzle: Same State NG 3) | 43 | 48.4 | 58.7 | – | – | –
GCGAGCGUACUUGCAACAUGAGGAUCACCCAUGUUAACUGGACAGGAUAUGGUACCGUUUCGGUACCAGAAGGGUUCCUCAAUG [JL SSNG3 3.62] (Eterna round: R96, puzzle: Same State NG 3) | 116 | 295 | 214 | – | – | –
GCGAGCGUACUUGCAACAUGAGGAUCACCCAUGUUAACUGGACAGGAUAUGGUACCGUUUCGGUACCAGAAGGGUUUAUCAUGU [JL SSNG3 3.66] (Eterna round: R96, puzzle: Same State NG 3) | 92.8 | 92.3 | 116 | – | – | –
GCGAGCGUACUUGCAACAUGAGGAUCACCCAUGUUAACUGGACAGGAUAUGGUACCGUUUCGGUACCAGAAGGGUUUUUCAUGG [JL SSNG3 3.64] (Eterna round: R96, puzzle: Same State NG 3) | 50.6 | 85.6 | 74.3 | – | – | –
